Results from article PMC9676404, “Three-dimensional structure of a mycobacterial oligoribonuclease reveals a unique C-terminal tail that stabilizes the homodimer” (The Journal of Biological Chemistry, 2022).

Experiments:
[1] = target: Orn of Mycobacterium smegmatis (MSMEG_4724, clone B) (Mycobacterium smegmatis mc2155); experiment: SEC; Superdex-75 (10/300) column, 20 mM Tris-HCl pH 8.5, 100 mM NaCl; elution volume compared with molecular weight standards
[2] = target: Orn of Mycobacterium smegmatis (MSMEG_4724, clone B) (Mycobacterium smegmatis mc2155); experiment: SEC; Superdex-75 column, Ms_orn with increasing concentrations of Gdm-HCl
[3] = target: Orn of Mycobacterium smegmatis (MSMEG_4724, clone B) (Mycobacterium smegmatis mc2155); experiment: SEC-MALS; Superdex-75 (10/300) with in-line MALLS and refractive index detectors, room temperature, 20 mM Tris-HCl pH 8.5, 100 mM NaCl, 5% glycerol, 0.5 ml/min; 200 ul of 3 mg/ml Ms_orn or 6 mg/ml Eco_orn
[4] = target: Ms_ornΔC (C-terminal deletion mutant of Ms_orn lacking residues 186-209) (Mycobacterium smegmatis mc2155); experiment: not stated; oligomeric state of purified Ms_ornΔC, shown in Fig. S3
[5] = target: the molecule itself; experiment: SEC; Superdex-75 (10/300) column, 20 mM Tris-HCl pH 8.5, 100 mM NaCl; elution volume compared with molecular weight standards

Orn of Mycobacterium smegmatis (MSMEG_4724, clone B) (enzyme)
stoichiometry N [1]: 2
stoichiometry N [2]: 2
stoichiometry N [3]: 2

Ms_ornΔC (C-terminal deletion mutant of Ms_orn lacking residues 186-209) (domain or fragment)
stoichiometry N [4]: 2

B1: Orn of Escherichia coli (enzyme, Escherichia coli K-12, UniProt P0A784 1-181, looked up)
chain: MSANENNLIWIDLEMTGLDPERDRIIEIATLVTDANLNILAEGPTIAVHQSDEQLALMDDWNVRTHTASGLVERVKASTMGDREAELATLEFLKQWVPAGKSPICGNSIGQDRRFLFKYMPELEAYFHYRYLDVSTLKELARRWKPEILDGFTKQGTHQAMDDIRESVAELAYYREHFIKL
notes: Oligoribonuclease (Orn) of Escherichia coli K-12; open reading frame of orn amplified from genomic DNA; residues 2-181 traced in the structure; also called oligoribonuclease; not shown: His10-Smt3, N-terminal, cleaved
stoichiometry N [5]: 2
